Where no end group is shown, it is not given here. [ ]: non-standard residue; d: D form. pS = N[C@@H](COP(=O)(O)O)C(=O)O
B2: GST-tagged CNOT1(800–1015) (domain or fragment, human, UniProt A5YKK6-2 800-1015, looked up)
chain: NNDPFVQRKLGTSGLNQPTFQQTDLSQVWPEANQHFSKEIDDEANSYFQRIYNHPPHPTMSVDEVLEMLQRFKDSTIKREREVFNCMLRNLFEEYRFFPQYPDKELHITACLFGGIIEKGLVTYMALGLALRYVLEALRKPFGSKMYYFGIAALDRFKNRLKDYPQYCQHLASISHFMQFPHHLQEYIEYGQQSRDPPVKMQGSITTPGSIALAQA
B3: MBP-fused full-length human Tristetraprolin (TTP) (natural protein, UniProt P26651 1-326, looked up)
chain: MDLTAIYESLLSLSPDVPVPSDHGGTESSPGWGSSGPWSLSPSDSSPSGVTSRLPGRSTSLVEGRSCGWVPPPPGFAPLAPRLGPELSPSPTSPTATSTTPSRYKTELCRTFSESGRCRYGAKCQFAHGLGELRQANRHPKYKTELCHKFYLQGRCPYGSRCHFIHNPSEDLAAPGHPPVLRQSISFSGLPSGRRTSPPPPGLAGPSLSSSSFSPSSSPPPPGDLPLSPSAFSAAPGTPLARRDPTPVCCPSCRRATPISVWGPLGGLVRTPSVQSLGSDPDEYASSGSSLGGSDSPVFEAGVFAPPQPVAAPRRLPIFNRISVSE

Tests used:
[1] = biological target: B2; experiment: pull-down
[2] = biological target: T1, MBP-TTP lacking amino acids 179–192 (TTP-MUT1) (human, UniProt P26651 1-326, lacking amino acids 179–192); experiment: pull-down
T1 sequence (looked up): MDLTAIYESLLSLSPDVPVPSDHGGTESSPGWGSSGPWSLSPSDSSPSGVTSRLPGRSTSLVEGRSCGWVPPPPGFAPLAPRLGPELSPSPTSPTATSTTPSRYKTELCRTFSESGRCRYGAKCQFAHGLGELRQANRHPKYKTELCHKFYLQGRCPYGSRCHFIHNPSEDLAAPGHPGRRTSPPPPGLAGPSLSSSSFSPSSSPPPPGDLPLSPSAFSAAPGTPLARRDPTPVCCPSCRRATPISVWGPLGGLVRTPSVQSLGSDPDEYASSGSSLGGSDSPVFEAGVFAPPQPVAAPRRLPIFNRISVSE

[3] = biological target: B3; experiment: pull-down
[4] = biological target: CNOT1(800–999), TTP-interacting fragment of CNOT1 (human, UniProt A5YKK6-2 800-999); experiment: ITC
[5] = biological target: GST-fused CNOT1 fragment, residues 727–1266 (human, UniProt A5YKK6-2 727-1266); experiment: pull-down

B1: MBP-tagged TTP-CTD with Asn320 mutated to alanine (domain or fragment, human, UniProt P26651 174-326, looked up)
chain: APGHPPVLRQSISFSGLPSGRRTSPPPPGLAGPSLSSSSFSPSSSPPPPGDLPLSPSAFSAAPGTPLARRDPTPVCCPSCRRATPISVWGPLGGLVRTPSVQSLGSDPDEYASSGSSLGGSDSPVFEAGVFAPPQPVAAPRRLPIFARISVSE
binding result [1]: binds

B2
binding result [2]: binds | binding result [3]: binds

APRRLPIFNRI[pS]VSE [TTP-CIM peptide 312–326 containing phospho-Ser323]
Kd [4]: ~0.625 mM

B3
binding result [5]: binds

APRRLPIANRISVSE [TTP peptide 312–326, Phe319Ala mutant]
Kd [4]: ~7 mM

Reference: PMC4811204 (Nature structural & molecular biology, 2013)
